This is an account of results in patent US20250270313A1.

This experiment concerns the target human Claudin 18.2 (hClaudin18.2) (human) (UniProt P56856). In words: flow cytometry on CHO cells overexpressing claudin18.2.

What is called EC50 is the concentration giving half of the maximal effect. A high value points to a less potent agent.

In turn, IMAB362-FC (Fc fusion) returned an EC50 of 2 µg/mL.
